These results are taken from PMC9843451.

Assay in all cases: purified protein
What all share (assay type): biochemical, Rhodopseudomonas palustris

Substrate in data set [1]: CCCCCCC1CCC(=O)O1
The note with it: 2.5 mM bicine pH 8.3, 150 mM NaCl, 1 mM CaCl2, DMSO, error is 95% CI.

Substrate in data set [2]: O=C1CCCCO1
The note with it: 2.5 mM bicine pH 8.3, 150 mM NaCl, 1 mM CaCl2, DMSO, error is 95% CI.

Substrate in data set [3]: O=C1CCc2ccccc2O1
The note with it: 50 mM Tris pH 8, 150 mM NaCl, 1 mM CaCl2, DMSO, error is 95% CI.

B1: Rpa3624 (Rhodopseudomonas palustris CGA009) (protein)
chain: MSNVRVLATDLAFPEGPVVMPDGSVVLVEIRAQQLTRVWPDGRKEVVAKVPGGPNGAALGPDGKMYICNNGGFGWFPSRGTMMPGAPAPHEYIGGSIQRVDLQSGEVETLFDKCGEHPLKGPNDLVFDKHGGLWFTDLGKRRARDMDVGAAYYIKPGMTEITEQVFGTLPLNGIGLSPDEATMYAAETPTGRLWAFDLSGPGEVKPRDVIYRGEKGKPICGLGGYQMFDSLAVEASGNVCVATLVSGCISVIAPDGTLVEQVPTGDRVTTNIAFGGPDLKTAYITLSGKGELIAMDWSRPGLPLNFLNK
For B1, in “purified protein [1]”, the Km was 2.36 (1.15–4.82) mM, the kcat stood at 135 s⁻¹ and the kcat/Km was determined as 57200 M⁻¹ s⁻¹. In “purified protein [2]”, the Km was 74.0 (40.7–133) mM, the turnover number (kcat) is 754 s⁻¹ and the kcat/Km turned out to be 10200 M⁻¹ s⁻¹. In addition, in the data set “purified protein [3]”, the Km was 1.85 (0.976–3.77) mM, the catalytic constant (kcat) was determined as 308 s⁻¹ and the catalytic efficiency (kcat/Km) turned out to be 166000 M⁻¹ s⁻¹.
